Reference: the Immune Epitope Database (IEDB)

Legend:
HLA-A*02:03 = assay: IEDB peptide-MHC binding, purified MHC/direct/fluorescence; filed as Kd, often an IC50 or EC50 that approximates it; ≥ and ≤ were set here for values at or beyond the usual limits of such assays
HLA-A*02:12 = assay: as above
HLA-A*02:16 = assay: as above
HLA-A*02:19 = assay: as above
HLA-A*03:01 = assay: as above
HLA-A*24:03 = assay: as above; conditions: source organism: Zaire ebolavirus
HLA-A*29:02 = assay: as above
HLA-A*68:02 = assay: as above
HLA-B*27:05 = assay: as above
HLA-A*02:01 [1] = assay: IEDB peptide-MHC binding, purified MHC/competitive/fluorescence; filed as Kd, often an IC50 or EC50 that approximates it; ≥ and ≤ were set here for values at or beyond the usual limits of such assays
HLA-A*26:01 [2] = assay: as above
HLA-A*69:01 [3] = assay: as above
HLA-B*15:01 [4] = assay: as above
HLA-B*15:17 = assay: as above
HLA-B*18:01 [5] = assay: as above
HLA-B*39:01 [6] = assay: as above
HLA-B*46:01 [7] = assay: as above
HLA-B*51:01 = assay: as above
HLA-B*57:01 [8] = assay: as above
HLA-A*69:01 [9] = assay: IEDB peptide-MHC binding, purified MHC/direct/fluorescence; filed as Kd, often an IC50 or EC50 that approximates it; ≥ and ≤ were set here for values at or beyond the usual limits of such assays
HLA-C*15:02 = assay: as above
HLA-A*24:02 = assay: IEDB peptide-MHC binding, purified MHC/competitive/fluorescence; ≥ and ≤ were set here for values at or beyond the usual limits of such assays; conditions: source organism: Sudan ebolavirus
HLA-A*02:11 = assay: IEDB peptide-MHC binding, purified MHC/direct/fluorescence; filed as Kd, often an IC50 or EC50 that approximates it; ≥ and ≤ were set here for values at or beyond the usual limits of such assays
HLA-B*58:01 = assay: as above
HLA-B*27:03 = assay: IEDB peptide-MHC binding, purified MHC/competitive/fluorescence; filed as Kd, often an IC50 or EC50 that approximates it; ≥ and ≤ were set here for values at or beyond the usual limits of such assays
HLA-A*01:01 = assay: IEDB peptide-MHC binding, purified MHC/direct/fluorescence; filed as Kd, often an IC50 or EC50 that approximates it; ≥ and ≤ were set here for values at or beyond the usual limits of such assays
HLA-A*02:01 [10] = assay: as above
HLA-A*11:01 = assay: as above
HLA-A*31:01 = assay: as above
HLA-B*18:01 [11] = assay: as above
HLA-B*40:01 = assay: as above
HLA-B*46:01 [12] = assay: as above
HLA-B*48:01 = assay: as above
HLA-B*57:01 [13] = assay: as above
HLA-B*15:42 = assay: IEDB peptide-MHC binding, purified MHC/competitive/fluorescence; filed as Kd, often an IC50 or EC50 that approximates it; ≥ and ≤ were set here for values at or beyond the usual limits of such assays
HLA-B*45:06 = assay: as above
HLA-B*83:01 = assay: as above
HLA-A*26:01 [14] = assay: IEDB peptide-MHC binding, purified MHC/direct/fluorescence; filed as Kd, often an IC50 or EC50 that approximates it; ≥ and ≤ were set here for values at or beyond the usual limits of such assays; conditions: source organism: Orthohantavirus moroense
HLA-B*15:01 [15] = assay: as above
HLA-B*44:02 = assay: as above; conditions: source organism: Yellow fever virus
HLA-B*39:01 [16] = assay: as above; conditions: source organism: Camelpox virus M-96
[17] = source organism: Zaire ebolavirus
[18] = source organism: West Nile virus
[19] = source organism: Camelpox virus M-96
[20] = source organism: human gammaherpesvirus 4
[21] = source organism: Mycobacterium tuberculosis C
[22] = source organism: Limestone Canyon virus
[23] = source organism: Orthohantavirus puumalaense
[24] = source organism: Yellow fever virus
[25] = source organism: Orthohantavirus hantanense

KRLQILGYL
Kd (HLA-A*02:03; [17]): ≥ 20 µM | Kd (HLA-A*02:12; [17]): ≥ 20 µM | Kd (HLA-A*02:16; [17]): ≥ 20 µM | Kd (HLA-A*02:19; [17]): ≥ 20 µM | Kd (HLA-A*03:01; [17]): ≥ 20 µM | Kd (HLA-A*24:03): ≥ 20 µM | Kd (HLA-A*29:02; [17]): ≥ 20 µM | Kd (HLA-A*68:02; [17]): ≥ 20 µM | Kd (HLA-B*27:05; source organism: Sudan ebolavirus - Maleo (1979)): 0.204 µM | Kd (HLA-A*02:01 [1]; [17]): ≥ 20 µM | Kd (HLA-A*26:01 [2]; [17]): ≥ 20 µM | Kd (HLA-A*69:01 [3]; [17]): ≥ 20 µM | Kd (HLA-B*15:01 [4]; [17]): ≥ 20 µM | Kd (HLA-B*15:17; [17]): ≥ 20 µM | Kd (HLA-B*18:01 [5]; [17]): ≥ 20 µM | Kd (HLA-B*39:01 [6]; [17]): ≥ 20 µM | Kd (HLA-B*46:01 [7]; [17]): ≥ 20 µM | Kd (HLA-B*51:01; [17]): ≥ 20 µM | Kd (HLA-B*57:01 [8]; [17]): ≥ 20 µM

RLARAIIEL
Kd (HLA-A*69:01 [9]; [18]): 3.79 µM | Kd (HLA-C*15:02; [18]): 2.42 µM

KSLQTTRRF
Kd (HLA-C*15:02; source organism: Histophilus somni 129PT): 0.266 µM

KCNPNLHYW
IC50 (HLA-A*24:02): 0.376 µM | Kd (HLA-A*02:03; [17]): ≥ 20 µM | Kd (HLA-A*02:11; [17]): ≥ 20 µM | Kd (HLA-A*02:12; [17]): ≥ 20 µM | Kd (HLA-A*02:16; [17]): ≥ 20 µM | Kd (HLA-A*02:19; [17]): ≥ 20 µM | Kd (HLA-A*03:01; [17]): ≥ 20 µM | Kd (HLA-A*29:02; [17]): ≥ 20 µM | Kd (HLA-A*68:02; [17]): ≥ 20 µM | Kd (HLA-B*58:01; source organism: Ebola virus - Eckron (Zaire, 1976)): 2.6 µM | Kd (HLA-A*02:01 [1]; [17]): ≥ 20 µM | Kd (HLA-A*26:01 [2]; [17]): ≥ 20 µM | Kd (HLA-A*69:01 [3]; [17]): ≥ 20 µM | Kd (HLA-B*18:01 [5]; [17]): ≥ 20 µM | Kd (HLA-B*27:03; [17]): ≥ 20 µM | Kd (HLA-B*39:01 [6]; [17]): ≥ 20 µM | Kd (HLA-B*46:01 [7]; [17]): ≥ 20 µM

NSNINVINY
Kd (HLA-A*01:01; [19]): 5.44 µM | Kd (HLA-A*02:01 [10]; [19]): ≥ 20 µM | Kd (HLA-A*03:01; [19]): ≥ 20 µM | Kd (HLA-A*11:01; [19]): ≥ 20 µM | Kd (HLA-A*31:01; [19]): ≥ 20 µM | Kd (HLA-A*69:01 [9]; [19]): ≥ 20 µM | Kd (HLA-B*18:01 [11]; [19]): ≥ 20 µM | Kd (HLA-B*27:05; [19]): ≥ 20 µM | Kd (HLA-B*40:01; [19]): ≥ 20 µM | Kd (HLA-B*46:01 [12]; [19]): ≥ 20 µM | Kd (HLA-B*48:01; [19]): ≥ 20 µM | Kd (HLA-B*57:01 [13]; [19]): ≥ 20 µM | Kd (HLA-B*58:01; [19]): ≥ 20 µM | Kd (HLA-B*15:17; source organism: Vaccinia virus WR): ≥ 20 µM

TEMYIMYAM
Kd (HLA-B*15:42; [20]): ≥ 5 µM | Kd (HLA-B*45:06; [20]): ≥ 5 µM | Kd (HLA-B*83:01; [20]): ≥ 5 µM

RPMLARLTV
Kd (HLA-B*15:42; [21]): ≥ 5 µM | Kd (HLA-B*45:06; [21]): ≥ 5 µM | Kd (HLA-B*83:01; [21]): 0.185 µM

VTENKKIQY
Kd (HLA-A*02:01 [1]; source organism: Homo sapiens): ≥ 20 µM | Kd (HLA-A*26:01 [2]; source organism: Homo sapiens): ≥ 20 µM | Kd (HLA-A*69:01 [3]; source organism: Homo sapiens): ≥ 20 µM | Kd (HLA-B*15:01 [4]; source organism: Homo sapiens): ≥ 20 µM | Kd (HLA-B*15:17; source organism: Homo sapiens): ≥ 20 µM | Kd (HLA-B*18:01 [5]; source organism: Homo sapiens): ≥ 20 µM | Kd (HLA-B*27:03; source organism: Homo sapiens): ≥ 20 µM | Kd (HLA-B*39:01 [6]; source organism: Homo sapiens): ≥ 20 µM | Kd (HLA-B*46:01 [7]; source organism: Homo sapiens): ≥ 20 µM | Kd (HLA-B*51:01; source organism: Homo sapiens): ≥ 20 µM | Kd (HLA-B*57:01 [8]; source organism: Homo sapiens): ≥ 20 µM

FQWHEAMFL
Kd (HLA-A*02:01 [10]; source organism: Homo sapiens): 0.0002 µM | Kd (HLA-A*26:01 [2]; source organism: Homo sapiens): ≥ 20 µM | Kd (HLA-A*69:01 [3]; source organism: Homo sapiens): ≥ 20 µM | Kd (HLA-B*15:17; source organism: Homo sapiens): ≥ 20 µM | Kd (HLA-B*27:03; source organism: Homo sapiens): ≥ 20 µM | Kd (HLA-B*46:01 [7]; source organism: Homo sapiens): ≥ 20 µM | Kd (HLA-B*51:01; source organism: Homo sapiens): ≥ 20 µM | Kd (HLA-B*57:01 [8]; source organism: Homo sapiens): ≥ 20 µM

ATKDSFQSF
Kd (HLA-A*02:03; [22]): ≥ 20 µM | Kd (HLA-A*02:11; [22]): ≥ 20 µM | Kd (HLA-A*02:12; [22]): ≥ 20 µM | Kd (HLA-A*02:16; [22]): ≥ 20 µM | Kd (HLA-A*02:19; [22]): ≥ 20 µM | Kd (HLA-A*03:01; [22]): ≥ 20 µM | Kd (HLA-A*26:01 [14]): 0.556 µM | Kd (HLA-A*68:02; [22]): ≥ 20 µM | Kd (HLA-B*15:01 [15]; source organism: Orthohantavirus moroense): 0.372 µM | Kd (HLA-A*02:01 [1]; [23]): ≥ 20 µM | Kd (HLA-A*69:01 [3]; [23]): ≥ 20 µM | Kd (HLA-B*18:01 [5]; [23]): ≥ 20 µM | Kd (HLA-B*27:03; [23]): ≥ 20 µM | Kd (HLA-B*39:01 [6]; [23]): ≥ 20 µM

SCRVKLSAL
Kd (HLA-A*01:01; [24]): ≥ 20 µM | Kd (HLA-A*02:01 [10]; [24]): ≥ 20 µM | Kd (HLA-A*03:01; [24]): ≥ 20 µM | Kd (HLA-A*11:01; [24]): ≥ 20 µM | Kd (HLA-A*29:02; [24]): ≥ 20 µM | Kd (HLA-A*31:01; [24]): ≥ 20 µM | Kd (HLA-A*69:01 [9]; [24]): ≥ 20 µM | Kd (HLA-B*15:01 [15]; [24]): ≥ 20 µM | Kd (HLA-B*18:01 [11]; [24]): ≥ 20 µM | Kd (HLA-B*27:05; [24]): ≥ 20 µM | Kd (HLA-B*40:01; [24]): ≥ 20 µM | Kd (HLA-B*44:02): ≥ 20 µM | Kd (HLA-B*46:01 [12]; [24]): ≥ 20 µM | Kd (HLA-B*48:01; [24]): ≥ 20 µM | Kd (HLA-B*57:01 [13]; [24]): ≥ 20 µM | Kd (HLA-B*58:01; [24]): ≥ 20 µM

YHDDDNTTT
Kd (HLA-B*39:01 [16]): 0.343 µM

ISNQEPLKL
Kd (HLA-A*11:01; [25]): 18.6 µM | Kd (HLA-B*58:01; [25]): 0.105 µM | Kd (HLA-C*15:02; source organism: Orthohantavirus dobravaense): 0.009 µM
